In the data set the target is T1, GST-CmABF3 (Chrysanthemum morifolium, UniProt A0A7T8G3B9 1-415).
T1 sequence: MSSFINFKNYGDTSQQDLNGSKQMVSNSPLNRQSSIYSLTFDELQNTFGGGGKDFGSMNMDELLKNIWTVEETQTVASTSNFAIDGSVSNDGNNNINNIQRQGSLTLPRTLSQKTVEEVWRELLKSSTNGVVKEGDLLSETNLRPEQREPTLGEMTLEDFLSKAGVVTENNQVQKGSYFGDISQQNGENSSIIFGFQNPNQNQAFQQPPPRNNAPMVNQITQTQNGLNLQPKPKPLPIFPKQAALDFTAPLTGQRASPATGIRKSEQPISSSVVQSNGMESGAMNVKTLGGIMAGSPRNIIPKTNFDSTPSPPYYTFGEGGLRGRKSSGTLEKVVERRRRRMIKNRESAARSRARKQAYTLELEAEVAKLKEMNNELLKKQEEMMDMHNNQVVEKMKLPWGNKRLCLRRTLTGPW
Kind of data set: EMSA; 3 ug protein; cold-probe competition 100-5000x, outcome only in gel; LightShift Chemiluminescent EMSA kit, 20 ul reaction, 3 ug protein; biotin probe 50 nM or 2 nM (Methods); buffer, salt, pH and temperature not stated. Particulars: protein: recombinant; tags: GST (N-terminal, pGEX); chain copies: 2; blunt.

B1: proRAB18-probe (CmRAB18 promoter, two ABRE motifs) (dsDNA)
DNA 1: GAAATTAGACACGTACTTTTCAGTGATAACATAAACATACTTACGTGTTC
DNA 2: GAACACGTAAGTATGTTTATGTTATCACTGAAAAGTACGTGTCTAATTTC
As to B1, the binding result is recorded as “binds”.

(Values after publication PMC7496117, “A zinc finger protein BBX19 interacts with ABF3 to affect drought tolerance negatively in chrysanthemum”.)
